Measured values as given in PMC9282883.

Biological target: SARS-CoV-2 RBD WT (for SPR binding assays) (SARS-CoV-2) (UniProt P0DTC2)

Substance: S309 IgG1 (antibody)
- IC50, neutralisation of authentic SARS-CoV-2 (SARS-CoV-2-Nluc) on Vero E6 cells: 0.0789 µg/mL
- IC90, neutralisation of authentic SARS-CoV-2 (SARS-CoV-2-Nluc) on Vero E6 cells: 0.3 µg/mL
